Assay results reported in the Human Domainome abundance scans (Beltran et al. 2025).
± gives the uncertainty stated by the source.

B1: Steroid hormone receptor ERR2, residues 100 to 176; numbered along this chain, O95718 (parent)
chain: KRLCLVCGDIASGYHYGVASCEACKAFFKRTIQGNIEYSCPATNECEITKRRRKSCQACRFMKCLKVGMLKEGVRLD

Variants of: B1
Assay: abundance fitness (aPCA) (normalised: wild type 0, dead -1); higher = more abundant; growth selection in yeast, the domain comes from the species named
Settings: Homo sapiens

Variant | abundance fitness
KRLCLVCGDIAHGYHYGVASCEACKAFFKRTIQGNIEYSCPATNECEITKRRRKSCQACRFMKCLKVGMLKEGVRLD [S12H] | 0.082 ± 0.072
KRLCLVCGDIADGYHYGVASCEACKAFFKRTIQGNIEYSCPATNECEITKRRRKSCQACRFMKCLKVGMLKEGVRLD [S12D] | 0.022 ± 0.072
KRLCLVCGDIAVGYHYGVASCEACKAFFKRTIQGNIEYSCPATNECEITKRRRKSCQACRFMKCLKVGMLKEGVRLD [S12V] | 0.029 ± 0.051
KRLCLVCGDIAWGYHYGVASCEACKAFFKRTIQGNIEYSCPATNECEITKRRRKSCQACRFMKCLKVGMLKEGVRLD [S12W] | -0.253 ± 0.083
KRLCLVCGDIAPGYHYGVASCEACKAFFKRTIQGNIEYSCPATNECEITKRRRKSCQACRFMKCLKVGMLKEGVRLD [S12P] | -0.161 ± 0.087
KRLCLVCGDIARGYHYGVASCEACKAFFKRTIQGNIEYSCPATNECEITKRRRKSCQACRFMKCLKVGMLKEGVRLD [S12R] | -0.026 ± 0.047
KRLCLVCGDIAIGYHYGVASCEACKAFFKRTIQGNIEYSCPATNECEITKRRRKSCQACRFMKCLKVGMLKEGVRLD [S12I] | -0.327 ± 0.14
KRLCLVCGDIATGYHYGVASCEACKAFFKRTIQGNIEYSCPATNECEITKRRRKSCQACRFMKCLKVGMLKEGVRLD [S12T] | -0.138 ± 0.06
KRLCLVCGDIAGGYHYGVASCEACKAFFKRTIQGNIEYSCPATNECEITKRRRKSCQACRFMKCLKVGMLKEGVRLD [S12G] | -0.023 ± 0.048
KRLCLVCGDIAMGYHYGVASCEACKAFFKRTIQGNIEYSCPATNECEITKRRRKSCQACRFMKCLKVGMLKEGVRLD [S12M] | -0.118 ± 0.063
KRLCLVCGDIANGYHYGVASCEACKAFFKRTIQGNIEYSCPATNECEITKRRRKSCQACRFMKCLKVGMLKEGVRLD [S12N] | -0.019 ± 0.087
KRLCLVCGDIACGYHYGVASCEACKAFFKRTIQGNIEYSCPATNECEITKRRRKSCQACRFMKCLKVGMLKEGVRLD [S12C] | 0.155 ± 0.073
KRLCLVCGDIAQGYHYGVASCEACKAFFKRTIQGNIEYSCPATNECEITKRRRKSCQACRFMKCLKVGMLKEGVRLD [S12Q] | 0.115 ± 0.068
KRLCLVCGDIALGYHYGVASCEACKAFFKRTIQGNIEYSCPATNECEITKRRRKSCQACRFMKCLKVGMLKEGVRLD [S12L] | -0.156 ± 0.053
KRLCLVCGDIAAGYHYGVASCEACKAFFKRTIQGNIEYSCPATNECEITKRRRKSCQACRFMKCLKVGMLKEGVRLD [S12A] | 0.031 ± 0.053
KRLCLVCGDIAYGYHYGVASCEACKAFFKRTIQGNIEYSCPATNECEITKRRRKSCQACRFMKCLKVGMLKEGVRLD [S12Y] | -0.32 ± 0.12
KRLCLVCGDIAEGYHYGVASCEACKAFFKRTIQGNIEYSCPATNECEITKRRRKSCQACRFMKCLKVGMLKEGVRLD [S12E] | -0.02 ± 0.062
KRLCLVCGDIASGVHYGVASCEACKAFFKRTIQGNIEYSCPATNECEITKRRRKSCQACRFMKCLKVGMLKEGVRLD [Y14V] | 0.136 ± 0.043
KRLCLVCGDIASGKHYGVASCEACKAFFKRTIQGNIEYSCPATNECEITKRRRKSCQACRFMKCLKVGMLKEGVRLD [Y14K] | 0.03 ± 0.077
KRLCLVCGDIASGGHYGVASCEACKAFFKRTIQGNIEYSCPATNECEITKRRRKSCQACRFMKCLKVGMLKEGVRLD [Y14G] | -0.017 ± 0.051
KRLCLVCGDIASGIHYGVASCEACKAFFKRTIQGNIEYSCPATNECEITKRRRKSCQACRFMKCLKVGMLKEGVRLD [Y14I] | 0.03 ± 0.091
KRLCLVCGDIASGPHYGVASCEACKAFFKRTIQGNIEYSCPATNECEITKRRRKSCQACRFMKCLKVGMLKEGVRLD [Y14P] | -0.315 ± 0.12
KRLCLVCGDIASGHHYGVASCEACKAFFKRTIQGNIEYSCPATNECEITKRRRKSCQACRFMKCLKVGMLKEGVRLD [Y14H] | -0.034 ± 0.093
KRLCLVCGDIASGLHYGVASCEACKAFFKRTIQGNIEYSCPATNECEITKRRRKSCQACRFMKCLKVGMLKEGVRLD [Y14L] | 0.04 ± 0.047

Variant | abundance fitness
KRLCLVCGDIASGRHYGVASCEACKAFFKRTIQGNIEYSCPATNECEITKRRRKSCQACRFMKCLKVGMLKEGVRLD [Y14R] | -0.446 ± 0.075
KRLCLVCGDIASGMHYGVASCEACKAFFKRTIQGNIEYSCPATNECEITKRRRKSCQACRFMKCLKVGMLKEGVRLD [Y14M] | -0.276 ± 0.083
KRLCLVCGDIASGEHYGVASCEACKAFFKRTIQGNIEYSCPATNECEITKRRRKSCQACRFMKCLKVGMLKEGVRLD [Y14E] | 0.101 ± 0.066
KRLCLVCGDIASGSHYGVASCEACKAFFKRTIQGNIEYSCPATNECEITKRRRKSCQACRFMKCLKVGMLKEGVRLD [Y14S] | -0.111 ± 0.055
KRLCLVCGDIASGAHYGVASCEACKAFFKRTIQGNIEYSCPATNECEITKRRRKSCQACRFMKCLKVGMLKEGVRLD [Y14A] | 0.163 ± 0.063
KRLCLVCGDIASGCHYGVASCEACKAFFKRTIQGNIEYSCPATNECEITKRRRKSCQACRFMKCLKVGMLKEGVRLD [Y14C] | 0.068 ± 0.079
KRLCLVCGDIASGWHYGVASCEACKAFFKRTIQGNIEYSCPATNECEITKRRRKSCQACRFMKCLKVGMLKEGVRLD [Y14W] | 0.032 ± 0.062
KRLCLVCGDIASGFHYGVASCEACKAFFKRTIQGNIEYSCPATNECEITKRRRKSCQACRFMKCLKVGMLKEGVRLD [Y14F] | 0.063 ± 0.083
KRLCLVCGDIASGNHYGVASCEACKAFFKRTIQGNIEYSCPATNECEITKRRRKSCQACRFMKCLKVGMLKEGVRLD [Y14N] | -0.022 ± 0.11
KRLCLVCGDIASGQHYGVASCEACKAFFKRTIQGNIEYSCPATNECEITKRRRKSCQACRFMKCLKVGMLKEGVRLD [Y14Q] | -0.145 ± 0.083
KRLCLVCGDIASGYGYGVASCEACKAFFKRTIQGNIEYSCPATNECEITKRRRKSCQACRFMKCLKVGMLKEGVRLD [H15G] | -0.068 ± 0.048
KRLCLVCGDIASGYKYGVASCEACKAFFKRTIQGNIEYSCPATNECEITKRRRKSCQACRFMKCLKVGMLKEGVRLD [H15K] | -0.363 ± 0.099
KRLCLVCGDIASGYNYGVASCEACKAFFKRTIQGNIEYSCPATNECEITKRRRKSCQACRFMKCLKVGMLKEGVRLD [H15N] | -0.143 ± 0.077
KRLCLVCGDIASGYFYGVASCEACKAFFKRTIQGNIEYSCPATNECEITKRRRKSCQACRFMKCLKVGMLKEGVRLD [H15F] | -0.197 ± 0.088
KRLCLVCGDIASGYYYGVASCEACKAFFKRTIQGNIEYSCPATNECEITKRRRKSCQACRFMKCLKVGMLKEGVRLD [H15Y] | -0.085 ± 0.14
KRLCLVCGDIASGYEYGVASCEACKAFFKRTIQGNIEYSCPATNECEITKRRRKSCQACRFMKCLKVGMLKEGVRLD [H15E] | -0.045 ± 0.085
KRLCLVCGDIASGYCYGVASCEACKAFFKRTIQGNIEYSCPATNECEITKRRRKSCQACRFMKCLKVGMLKEGVRLD [H15C] | -0.435 ± 0.11
KRLCLVCGDIASGYIYGVASCEACKAFFKRTIQGNIEYSCPATNECEITKRRRKSCQACRFMKCLKVGMLKEGVRLD [H15I] | -0.115 ± 0.081
KRLCLVCGDIASGYLYGVASCEACKAFFKRTIQGNIEYSCPATNECEITKRRRKSCQACRFMKCLKVGMLKEGVRLD [H15L] | -0.223 ± 0.062
KRLCLVCGDIASGYWYGVASCEACKAFFKRTIQGNIEYSCPATNECEITKRRRKSCQACRFMKCLKVGMLKEGVRLD [H15W] | -0.1 ± 0.066
KRLCLVCGDIASGYDYGVASCEACKAFFKRTIQGNIEYSCPATNECEITKRRRKSCQACRFMKCLKVGMLKEGVRLD [H15D] | -0.211 ± 0.1
KRLCLVCGDIASGYQYGVASCEACKAFFKRTIQGNIEYSCPATNECEITKRRRKSCQACRFMKCLKVGMLKEGVRLD [H15Q] | -0.097 ± 0.13
KRLCLVCGDIASGYPYGVASCEACKAFFKRTIQGNIEYSCPATNECEITKRRRKSCQACRFMKCLKVGMLKEGVRLD [H15P] | -0.32 ± 0.092
KRLCLVCGDIASGYVYGVASCEACKAFFKRTIQGNIEYSCPATNECEITKRRRKSCQACRFMKCLKVGMLKEGVRLD [H15V] | -0.369 ± 0.071

Variant | abundance fitness
KRLCLVCGDIASGYMYGVASCEACKAFFKRTIQGNIEYSCPATNECEITKRRRKSCQACRFMKCLKVGMLKEGVRLD [H15M] | -0.325 ± 0.089
KRLCLVCGDIASGYTYGVASCEACKAFFKRTIQGNIEYSCPATNECEITKRRRKSCQACRFMKCLKVGMLKEGVRLD [H15T] | -0.356 ± 0.094
KRLCLVCGDIYSGYHYGVASCEACKAFFKRTIQGNIEYSCPATNECEITKRRRKSCQACRFMKCLKVGMLKEGVRLD [A11Y] | -0.128 ± 0.092
KRLCLVCGDITSGYHYGVASCEACKAFFKRTIQGNIEYSCPATNECEITKRRRKSCQACRFMKCLKVGMLKEGVRLD [A11T] | -0.321 ± 0.091
KRLCLVCGDIVSGYHYGVASCEACKAFFKRTIQGNIEYSCPATNECEITKRRRKSCQACRFMKCLKVGMLKEGVRLD [A11V] | -0.289 ± 0.063
KRLCLVCGDIASCYHYGVASCEACKAFFKRTIQGNIEYSCPATNECEITKRRRKSCQACRFMKCLKVGMLKEGVRLD [G13C] | -0.947 ± 0.29
KRLCLVCGDIASHYHYGVASCEACKAFFKRTIQGNIEYSCPATNECEITKRRRKSCQACRFMKCLKVGMLKEGVRLD [G13H] | -0.759 ± 0.46
KRLCLVCGDIASRYHYGVASCEACKAFFKRTIQGNIEYSCPATNECEITKRRRKSCQACRFMKCLKVGMLKEGVRLD [G13R] | -0.675 ± 0.14
KRLCLVCGDIASKYHYGVASCEACKAFFKRTIQGNIEYSCPATNECEITKRRRKSCQACRFMKCLKVGMLKEGVRLD [G13K] | -0.336 ± 0.23
KRLCLVCGDIASVYHYGVASCEACKAFFKRTIQGNIEYSCPATNECEITKRRRKSCQACRFMKCLKVGMLKEGVRLD [G13V] | -0.38 ± 0.09
KRLCLVCGDIASDYHYGVASCEACKAFFKRTIQGNIEYSCPATNECEITKRRRKSCQACRFMKCLKVGMLKEGVRLD [G13D] | -0.02 ± 0.092
KRLCLVCGDIASYYHYGVASCEACKAFFKRTIQGNIEYSCPATNECEITKRRRKSCQACRFMKCLKVGMLKEGVRLD [G13Y] | -0.867 ± 0.33
KRLCLVCGDIASWYHYGVASCEACKAFFKRTIQGNIEYSCPATNECEITKRRRKSCQACRFMKCLKVGMLKEGVRLD [G13W] | -0.64 ± 0.31
KRLCLVCGDIASAYHYGVASCEACKAFFKRTIQGNIEYSCPATNECEITKRRRKSCQACRFMKCLKVGMLKEGVRLD [G13A] | -0.751 ± 0.17
KRLCLVCGDIASLYHYGVASCEACKAFFKRTIQGNIEYSCPATNECEITKRRRKSCQACRFMKCLKVGMLKEGVRLD [G13L] | -0.743 ± 0.12
KRLCLVCGDIASSYHYGVASCEACKAFFKRTIQGNIEYSCPATNECEITKRRRKSCQACRFMKCLKVGMLKEGVRLD [G13S] | -0.555 ± 0.12
KRLCLVCGDIASNYHYGVASCEACKAFFKRTIQGNIEYSCPATNECEITKRRRKSCQACRFMKCLKVGMLKEGVRLD [G13N] | -0.362 ± 0.21
KRLCLVCGDIASMYHYGVASCEACKAFFKRTIQGNIEYSCPATNECEITKRRRKSCQACRFMKCLKVGMLKEGVRLD [G13M] | -0.539 ± 0.19
KRLCLVCGDIASQYHYGVASCEACKAFFKRTIQGNIEYSCPATNECEITKRRRKSCQACRFMKCLKVGMLKEGVRLD [G13Q] | -0.244 ± 0.2
KRLCLVCGDIASPYHYGVASCEACKAFFKRTIQGNIEYSCPATNECEITKRRRKSCQACRFMKCLKVGMLKEGVRLD [G13P] | -0.393 ± 0.18
KRLCLVCGDIASFYHYGVASCEACKAFFKRTIQGNIEYSCPATNECEITKRRRKSCQACRFMKCLKVGMLKEGVRLD [G13F] | -0.27 ± 0.16
KRLCLVCGDIASIYHYGVASCEACKAFFKRTIQGNIEYSCPATNECEITKRRRKSCQACRFMKCLKVGMLKEGVRLD [G13I] | 0.038 ± 0.17
KRLCLVCGDIASTYHYGVASCEACKAFFKRTIQGNIEYSCPATNECEITKRRRKSCQACRFMKCLKVGMLKEGVRLD [G13T] | -0.509 ± 0.17
